Measured values reported in US20200165312A1, “COSMETIC COMPOSITION FOR IMPROVING SKIN CONDITIONS COMPRISING FUSION PROTEIN INCLUDING SKIN PENETRATION ENHANCING PEPTIDE” (LG HOUSEHOLD & HEALTH CARE LTD., priority 2017, published 2020).

How the values were obtained:
[1] = Skin penetrability of growth factor fusion proteins (Franz glass cell, ELISA); type: in vitro ADME, porcine; settings: for Penetrated amount (%): 2 μg, 16 hours
Procedure: (§1) Specifically, porcine skin (thickness: 0.7 mm, Medikinetics) was placed between upper and lower ends of Franz glass cell (standard diameter: 9 mm, Receiver 5 mL, Permegear), and TBS (50 mM Tris pH 7.5, 150 mM NaCl) including 1% BSA and 0.01% Tween 20 was prepared. Then, 500 μL of the TBS was applied to the upper end of the glass cell (Donor chamber), and 5 mL of the TBS was applied to the lower end of the glass cell, (Receiver chamber). Subsequently, 2 μg of PDGFa or T-PDGFa was applied to the upper end of the glass cell, followed by reaction for 16 hours. Then, a concentration of PDGFa or T-PDGFa was quantitatively analyzed using the ELISA kit (R&D Systems), and a relative amount of T-PDGFa to PDGFa was calculated as a penetrated amount (Table 7).
Specifically, porcine skin (thickness: 0.7 mm, Medikinetics) was placed between upper and lower ends of Franz glass cell (standard diameter: 9 mm, Receiver 5 mL, Permegear), and TBS (50 mM Tris pH 7.5, 150 mM NaCl) including 1% BSA and 0.01% Tween 20 was prepared. Then, 500 μL of the TBS was applied to the upper end of the glass cell (Donor chamber), and 5 mL of the TBS was applied to the lower end of the glass cell, (Receiver chamber).
as §1, with “IGF-1” for “PDGFa”, “T-IGF-1” for “T-PDGFa”, “16).” for “7).”
as §1, with “KGF” for “PDGFa”, “T-KGF” for “T-PDGFa”, “20).” for “7).”
as §1, with “Tβ4” for “PDGFa”, “T-Tβ4” for “T-PDGFa”, “24).” for “7).”

[2] = Skin retentivity of growth factor fusion proteins (porcine skin disrupted, ELISA); type: in vitro ADME; settings: for Remaining amount (%): skin after 16 hours penetration test
Procedure: (§2) Specifically, the porcine skin remained after the experiment of Example 3-2-4 was recovered, frozen in liquid nitrogen, and disrupted. An amount of PDGFa or T-PDGFa contained therein was quantitatively analyzed using the ELISA kit (R&D Systems). In addition, a relative amount of T-PDGFa to PDGFa was calculated as a remaining amount (Table 8).
Specifically, the porcine skin remained after the experiment of Example 3-3-4 was recovered, frozen in liquid nitrogen, and disrupted. An amount of VEGF or T-VEGF contained therein was quantitatively analyzed using the ELISA kit (R&D Systems).
as §2, with “3-4-4” for “3-2-4”, “IGF-1” for “PDGFa”, “T-IGF-1” for “T-PDGFa”, “17).” for “8).”
as §2, with “3-5-3” for “3-2-4”, “KGF” for “PDGFa”, “T-KGF” for “T-PDGFa”, “21).” for “8).”
as §2, with “3-6-3” for “3-2-4”, “Tβ4” for “PDGFa”, “T-Tβ4” for “T-PDGFa”, “25).” for “8).”

Question: For “PDGFa: platelet-derived growth factor subunit a having an amino acid sequence of SEQ ID NO: 35”, which “Penetrated amount (%)” value ([1]; relative to PDGFa) is on record?
Answer: Its value is 100 ± 29%.

Question: And the “Remaining amount (%)” value ([2]; relative to PDGFa)?
Answer: Its value is 100 ± 20%.

Question: Which “Penetrated amount (%)” value ([1]; relative to Tβ4) does the source give for “Tβ4: thymosin beta 4 having an amino acid sequence of SEQ ID NO: 47” here?
Answer: The value was 100 ± 21%.

Question: What about the “Remaining amount (%)” value ([2]; relative to Tβ4) of the same substance?
Answer: The value was 100 ± 17%.

Question: Which “Penetrated amount (%)” value ([1]; relative to IGF-1) does the source give for “IGF-1: insulin-like growth factor-1 having an amino acid sequence of SEQ ID NO: 41” here?
Answer: Its value is 100 ± 14%.

Question: And the “Remaining amount (%)” value ([2]; relative to IGF-1)?
Answer: The value was 100 ± 28%.

Question: With “T-Tβ4: SEQ ID NO: 1 peptide C-terminal linked to N-terminal of Tβ4 via GG linker (NGSLNTHLAPILGGSDKPDMAEIEKFDKSKLKKTETQEKNPLPSKETIEQEKQAGES; Synthetic Fusion protein of T-T beta 4)” as the substance, how does the “Penetrated amount (%)” value ([1]; relative to Tβ4) read?
Answer: The value was 310 ± 28%.

Question: And the “skin penetrability compared with the unfused protein” value ([1]; summary of Tables 7, 12, 16, 20, 24)?
Answer: The value was “about three times higher”.

Question: And the “Remaining amount (%)” value ([2]; relative to Tβ4)?
Answer: Its value is 9,600 ± 450%.

Question: What about the “skin retentivity higher than the unfused protein” value ([2]; summary of Tables 8, 13, 17, 21, 25) of the same substance?
Answer: Its value is “about 100 times”.
